Data reported in publication PMC4980823 (Science (New York, N.Y.), 2016).
Like-named read-outs stand apart in the source and are kept apart here.

B1: Rpn13 Pru domain (amino acids 1–150), no substitutions (domain or fragment, yeast, UniProt O13563 1-150, looked up)
chain: MSMSSTVIKFRAGVCEYNEDSRLCTPIPVQGEIEIKPNEEEELGFWDFEWRPTEKPVGRELDPISLILIPGETMWVPIKSSKSGRIFALVFSSNERYFFWLQEKNSGNLPLNELSAKDKEIYNKMIGVLNNSSESDEEESNDEKQKAQDV
B2: Rpn1 (412–625) (domain or fragment, yeast, UniProt P38764 412-625, looked up)
chain: GDGMTSAVASIGSIYQWNLDGLQQLDKYLYVDEPEVKAGALLGIGISASGVHDGEVEPALLLLQDYVTNPDTKISSAAILGLGIAFAGSKNDEVLGLLLPIAASTDLPIETAAMASLALAHVFVGTCNGDITTSIMDNFLERTAIELKTDWVRFLALALGILYMGQGEQVDDVLETISAIEHPMTSAIEVLVGSCAYTGTGDVLLIQDLLHRLT
B3: Rad23 UBL domain (amino acids 1–78) (domain or fragment, yeast, UniProt P32628 1-78, looked up)
chain: MVSLTFKNFKKEKVPLDLEPSNTILETKTKLAQSISCEESQIKLIYSGKVLQDSKTVSECGLKDGDQVVFMVSQKKST

What was measured:
ubiquitin [1] = target: T1, ubiquitin (UniProt P0CG48 1-76); test: NMR titration
dynamic light scattering = target: the molecule itself; test: dynamic light scattering
ubiquitin [2] = target: T1, ubiquitin; test: NMR titration; remark: listed apart in the source
Rpn1 (412–625) = target: B2; test: ITC

Binder: B1
binding result (ubiquitin [1]): binds

Binder: B2
binding result (dynamic light scattering): binds
binding result (ubiquitin [2]): binds

Binder: B3
Kd (Rpn1 (412–625)): 64 ± 25 nM
